{
  "source": "patent US20050272633A1",
  "biological_target": "endogenous NIK of mouse embryonic fibroblast cells (mouse) (UniProt Q9WUL6)",
  "sequence (Q9WUL6 whole entry, the tested form may be a part)": "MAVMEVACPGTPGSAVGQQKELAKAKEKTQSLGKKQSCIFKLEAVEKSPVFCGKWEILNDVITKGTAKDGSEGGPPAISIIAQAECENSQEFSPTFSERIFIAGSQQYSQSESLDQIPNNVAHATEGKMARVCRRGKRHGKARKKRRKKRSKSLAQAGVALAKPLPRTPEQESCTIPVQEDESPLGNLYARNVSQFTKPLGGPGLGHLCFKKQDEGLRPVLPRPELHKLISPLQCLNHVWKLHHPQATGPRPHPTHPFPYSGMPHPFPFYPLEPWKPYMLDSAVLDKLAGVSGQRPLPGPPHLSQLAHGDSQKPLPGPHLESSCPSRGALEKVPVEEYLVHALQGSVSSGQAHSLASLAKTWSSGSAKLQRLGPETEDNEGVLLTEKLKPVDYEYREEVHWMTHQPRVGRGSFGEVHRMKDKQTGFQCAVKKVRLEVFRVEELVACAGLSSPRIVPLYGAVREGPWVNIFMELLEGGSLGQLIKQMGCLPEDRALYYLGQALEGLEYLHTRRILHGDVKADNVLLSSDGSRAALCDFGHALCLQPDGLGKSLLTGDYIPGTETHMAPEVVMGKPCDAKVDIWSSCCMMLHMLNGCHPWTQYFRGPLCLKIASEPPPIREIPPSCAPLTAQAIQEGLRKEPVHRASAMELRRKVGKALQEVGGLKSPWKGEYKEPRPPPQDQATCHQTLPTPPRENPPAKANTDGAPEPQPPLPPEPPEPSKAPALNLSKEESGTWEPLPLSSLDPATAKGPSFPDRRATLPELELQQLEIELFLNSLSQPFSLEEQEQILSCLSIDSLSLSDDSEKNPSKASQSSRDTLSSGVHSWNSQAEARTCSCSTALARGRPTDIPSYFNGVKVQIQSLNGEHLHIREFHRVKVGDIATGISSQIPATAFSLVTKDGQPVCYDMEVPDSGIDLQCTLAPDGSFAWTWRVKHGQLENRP",
  "assay": "cell-based or functional assay",
  "data": [
    {"substance": "GST fusion protein with the intracellular domain of cγc (pGSTICcγc) (from UniProt P31785 284-369)", "values": [
      {"measurement": "NF-κB activation by LTβ, luciferase reporter assay, mouse embryonic fibroblast cell line", "value": 2.5, "unit": "fold"}
    ]},
    {"substance": "GST-41MDD fusion protein (from UniProt P31785 329-369)", "values": [
      {"measurement": "decrease in NF-κB activation by LTβ, luciferase reporter assay, mouse embryonic fibroblast cell line", "value": 50, "unit": "%"}
    ]}
  ]
}
